These results are taken from patent US20220356255A1 (CENTESSA PHARMACEUTICALS UK, published 2022).

In assay [1] the target is T1, human PD-L1 on cells (human, UniProt Q9NZQ7 19-290).
T1 construct: Endogenous on MDA-MB-231 cells or transfected into HEK293FF cells (Sino Biological plasmid); the assay field says which; also called native PD-L1 on MDA-MB-231 cells; PD-L1 expressing MDA-MB-231 cells
In words: flow cytometry on MDA-MB-231 cells, Krebs buffer; ratio of EC50 values. On the procedure:
(§1) Anti-PD-L1 affinity matured Fabs were tested for their ability to bind to native PD-L1 in a cell line, (MDA-MB-231 cells) in a buffer resembling the tumor microenvironment (Krebs-lactate).

Assay [2] addresses T2, human PD-L1-Fc protein (human, UniProt Q9NZQ7 19-239).
T2 construct: Bought from R&D Systems; also called immobilised PD-L1-Fc; not shown: Fc part of the bought fusion protein, not described
In words: BIAcore off rate, unpurified periplasmic extract Fab on PD-L1. A general note: SPR reads the build-up and loss of mass on a sensor chip optically.

Assay [3] has as its target T3, biotinylated human PD-L1 (human, UniProt Q9NZQ7 19-239, limits assumed, biotinylated (sites not given)).
T3 construct: Bought from R&D Systems; also called biotinylated-PD-L1; human PD-L1 biotin
Briefly: competition ELISA, Fab with biotinylated PD-L1 on coated PD-1-Fc. For orientation: An ELISA detects its analyte on a solid surface through an enzyme-linked reagent.

Assay [4] has as its target T2, human PD-L1-Fc protein. Briefly: ELISA, Fab on coated human PD-L1-Fc; ratio from extrapolating an OD of 0.3 at pH 6 versus pH 7.4.
Assay [5] has as its target T2, human PD-L1-Fc protein. Briefly: ELISA, Fab on coated human PD-L1-Fc, pH 7.4; pH 7.4.
The target in assay [6] is T2, human PD-L1-Fc protein. Briefly: ELISA, Fab on coated human PD-L1-Fc, pH 6.
Assay [7] has as its target T2, human PD-L1-Fc protein. Briefly: ELISA, purified Fab on coated human PD-L1-Fc, pH 6 (FIG. 4).
Assay [8] addresses T1, human PD-L1 on cells. Briefly: flow cytometry on MDA-MB-231 cells, Krebs buffer, pH 6. On the procedure:
as §1
For orientation: A flow cytometer gives signals particle by particle.

Assay [9] concerns the target T3, biotinylated human PD-L1. In words: competition ELISA, Fab with biotinylated PD-L1 on coated PD-1-Fc, pH 6.
Assay [10] addresses T3, biotinylated human PD-L1. In words: competition ELISA, Fab with biotinylated PD-L1 on coated PD-1-Fc, pH 6.5.
In assay [11] the target is T1, human PD-L1 on cells. Briefly: flow cytometry on MDA-MB-231 cells, Krebs buffer, pH 6.5. On the procedure:
as §1

Assay [12] deals with T3, biotinylated human PD-L1. In words: competition ELISA, Fab with biotinylated PD-L1 on coated PD-1-Fc, pH 6. The source holds these as a separate data set.
For assay [13], the target named is T3, biotinylated human PD-L1. Briefly: competition ELISA, Fab with biotinylated PD-L1 on coated PD-1-Fc, pH 7.4.
Assay [14] has as its target T2, human PD-L1-Fc protein. In words: BIAcore off rate, unpurified periplasmic extract Fab on PD-L1, pH 6.
Assay [15] addresses T3, biotinylated human PD-L1. In words: competition ELISA, Fab with biotinylated PD-L1 on coated PD-1-Fc; ratio of IC50 values.
Assay [16] has as its target T2, human PD-L1-Fc protein. In words: BIAcore off rate, unpurified periplasmic extract Fab on PD-L1, pH 7.4.
Assay [17] has as its target T1, human PD-L1 on cells. In words: flow cytometry on MDA-MB-231 cells, Krebs buffer, pH 7.4. On the procedure: as §1
Assay [18] concerns the target T2, human PD-L1-Fc protein. In words: SPR BIAcore, mAb over immobilised PD-L1-Fc, pH 6.0.
Assay [19] deals with T2, human PD-L1-Fc protein. In words: SPR BIAcore, mAb over immobilised PD-L1-Fc. On the procedure:
(§2) To assess the affinity of selected IgG formatted purified clones to human PD-L1 at pH6.0 and at pH7.4, human PD-L1-Fc protein was coated by amine coupling. Surface plasmon resonance (SPR) (BIAcore 3000, GE Healthcare) was used to determine the binding kinetics of selected IgG formatted purified clones to human PD-L1 at pH6.0 and at pH 7.4. Approximately 3000 RU of human PD-L1 Fc (R&D Systems) at 50 μg/ml in Acetate buffer pH 5.0 was immobilized onto a CM5 chip using the standard amine coupling procedure. QC of the PD-L1 immobilization was performed using an anti-PD-L1 commercial antibody (R&D systems cat. no. AF156) at 2.0 μg/ml. 1×HBS-EP pH 7.4 or HBS-EP pH 7.0 or HBS-EP […] citrate buffer pH 6.5 or HBS-EP […] citrate buffer pH 6.0, were utilized as running buffers during binding kinetic measurements. […] Fitting 1:1 binding with mass transfer was applied to the curves using the BIAevaluation software to calculate the kinetic constants of the antibody-antigen interactions including association rate (ka), dissociation rate (kd) and affinity (KD).

Assay [20] has as its target T1, human PD-L1 on cells. In words: flow cytometry on MDA-MB-231 cells, Krebs buffer with lactate, pH 7.4 (FIG. 3); pH 7.4. On the procedure: (§3) In order to mimic an acidic tumor environment milieu with tumor cells expressing PD-L1 (The metabolism of tumors in the body, Warburg et al. J Gen Physiol. 1927; 8:519-30) the following buffers were utilised: Krebs ringer bicarbonate buffer (KRB, Amsbio catalog number KRB-1000) with 1 mM lactic acid (Sigma catalog number 252476-50DG) for pH 7.4; KRB plus 15 mM lactic acid for pH 6.5 and KRB plus 20 mM lactic acid for pH 6.0). 3 fold dilutions (100 nM to 0.0005 nM; 0) of the Fabs or IgG were prepared in the respective pH buffers and incubated with 0.60E05 MDA-MB-231 cells for 60 minutes at 4° C. The cells were then washed 3× with the respective pH buffers, at 300 g for 3 min. The cells were then incubated with 50 μl of anti-human IgG (Fab specific)-FITC (Sigma, catalog number F5512-1ML) at 1:100 dilution in the respective pH buffers. Binding of the IgG or Fab to PD-L1 expressing cells was measured by FACS (Attune Nxt) and a total of 10.000 cells were acquired per sample.

Assay [21] has as its target T2, human PD-L1-Fc protein. Briefly: SPR BIAcore, mAb over immobilised PD-L1-Fc, pH 7.0. On the procedure:
as §2

In assay [22] the target is T2, human PD-L1-Fc protein. In words: SPR BIAcore, mAb over immobilised PD-L1-Fc, pH 6.5. On the procedure: as §2
The target in assay [23] is T2, human PD-L1-Fc protein. Briefly: SPR BIAcore, mAb over immobilised PD-L1-Fc, pH 7.4. On the procedure:
as §2

In assay [24] the target is T2, human PD-L1-Fc protein. In words: SPR BIAcore off rate, mAb over immobilised PD-L1-Fc (FIG. 2). On the procedure: as §2
The target in assay [25] is T3, biotinylated human PD-L1. Briefly: competition ELISA, mAb with biotinylated PD-L1 on coated B7-1-Fc (CD80) (FIG. 1B); PD-L1 binding to CD80 (FIG. 1B).
Assay [26] deals with T1, human PD-L1 on cells. In words: flow cytometry on MDA-MB-231 cells, Krebs buffer with lactate, pH 6.0 (FIG. 3); pH 6.0. On the procedure:
as §3

Assay [27] concerns the target T3, biotinylated human PD-L1. In words: competition ELISA, mAb with biotinylated PD-L1 on coated PD-1-Fc (FIG. 1A); PD-L1 binding to PD-1 (FIG. 1A).
Assay [28] concerns the target T1, human PD-L1 on cells. Briefly: flow cytometry on MDA-MB-231 cells, Krebs buffer with lactate, pH printed as 6.6 (FIG. 3); pH printed as 6.6 (experiment described at pH 6.5); pH 6.6. On the procedure:
as §3

By EC50 is commonly meant the concentration at which the effect is half-maximal. As a reminder, the IC50 is the point on the concentration scale where inhibition reaches its midpoint. The term koff denotes the first-order rate constant of dissociation. Higher therefore signals fast dissociation. For orientation: Kd means the equilibrium constant for the complex coming apart. Usually kon stands for a measure of how fast the partners come together.

T1 sequence (Q9NZQ7 19-290 limits assumed): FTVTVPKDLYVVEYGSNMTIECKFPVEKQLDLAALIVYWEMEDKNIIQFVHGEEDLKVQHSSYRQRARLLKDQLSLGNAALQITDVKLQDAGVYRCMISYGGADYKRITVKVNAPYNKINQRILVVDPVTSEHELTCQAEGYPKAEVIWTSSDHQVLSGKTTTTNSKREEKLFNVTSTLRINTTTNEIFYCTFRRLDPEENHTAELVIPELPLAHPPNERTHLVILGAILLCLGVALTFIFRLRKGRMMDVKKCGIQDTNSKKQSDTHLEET
T2 sequence (Q9NZQ7 19-239 limits assumed): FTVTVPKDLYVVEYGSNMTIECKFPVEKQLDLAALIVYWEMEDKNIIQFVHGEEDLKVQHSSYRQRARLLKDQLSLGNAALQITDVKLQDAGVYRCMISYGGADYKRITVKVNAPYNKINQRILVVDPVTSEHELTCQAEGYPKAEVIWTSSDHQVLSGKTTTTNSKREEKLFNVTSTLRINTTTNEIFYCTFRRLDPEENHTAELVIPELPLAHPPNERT
T3 sequence (Q9NZQ7 19-239 limits assumed): as above

B1: Fab 8D06 (Fab, V domains shown)
VH: QVQLVQSGGGVVQPGRSLRLSCAASGFTFSSYGMYWVRQAPGKGLEWVAVISYDGSNKYYADSVKGRFTISRDNSKNTLNLQMNSLRAEDTAVYYCAKGALTHWGVVIGDGMDVWGQGTTVTVSS
VL: NFMLTQPHSVSESPGKTVTISCVLSPRTHAGHYYRWYQQRPGSSPTTVIYEDDQRPSGVPDRFSGSIDSSSNSASLTISGLKTEDEADYYCQSFDSTNPWVFGGGTKLTVL
notes: Purified Fab prepared from IgG with the Pierce kit; also called 8D06 Fab
For the molecule B1, the “Ratio pH 6:7.4” value with human PD-L1 on cells [1] is 11; with human PD-L1-Fc protein [4] it was 39; with biotinylated human PD-L1 [15], greater than 7.63. The “Ratio pH 6 vs 7.4” value in the assay with human PD-L1-Fc protein [2] turned out to be 20. Besides, in the assay with biotinylated human PD-L1 [3], the “fold less inhibitory activity at pH 6.5 than at pH 6” value was roughly 3 fold. The EC50 with human PD-L1-Fc protein [5] is greater than 10 nM; with human PD-L1-Fc protein [6] it was 0.11 nM; with human PD-L1 on cells [8] it was 1.45 nM; in the assay with human PD-L1 on cells [11] it was 2.92 nM; in the assay with human PD-L1 on cells [17], 16 nM. Further, the “concentration at saturation of binding” value with human PD-L1-Fc protein [7] is 4 nM. In addition, the IC50 with biotinylated human PD-L1 [9] was 13.1 nM; with biotinylated human PD-L1 [10], 40 nM; in the assay with biotinylated human PD-L1 [13], greater than 100 nM. Further, the “fold less (IC50) than the control Fab 2.7A04OPT at pH 6” value with biotinylated human PD-L1 [12] is roughly 3 fold. Besides, the koff amounted to 0.000699 s⁻¹ with human PD-L1-Fc protein [14] and 0.00345 s⁻¹ with human PD-L1-Fc protein [16].

B2: mAb 2A09 (antibody, V domains shown)
VH: QVQLVQSGGGVVQPGRSLRLSCAASGFTFSSYGMYWVRQAPGKGLEWVAVISYDGSNKYYADSVKGRFTISRDNSKNTLNLQMNSLRAEDTAVYYCAKGALTHWGVVIGDGMDVWGQGTTVTVSS
VL: NFMLTQPHSVSESPGKTVTISCTRSSGSIASNYVQWYQQRPGSSPTTVIYEDDQRPSGVPDRFSGSIDSSSNSASLTISGLKTEDEADYYCQSFDSTNPWVFGGGTKLTVL
notes: Fully human; also called 2A09_WT; 2A09 WT
For the molecule B2, the Kd with human PD-L1-Fc protein [18] was found to be 0.13 nM; in the assay with human PD-L1-Fc protein [21], 0.57 nM; with human PD-L1-Fc protein [22], 0.18 nM; in the assay with human PD-L1-Fc protein [23], 2.6 nM. Besides, the koff with human PD-L1-Fc protein [18] worked out at 0.000865 s⁻¹; with human PD-L1-Fc protein [21] it was 0.00711 s⁻¹; with human PD-L1-Fc protein [22], 0.00129 s⁻¹; with human PD-L1-Fc protein [23] it was 0.0271 s⁻¹. Further, the kon stood at 6.77e+06 M⁻¹ s⁻¹ with human PD-L1-Fc protein [18], 1.25e+07 M⁻¹ s⁻¹ with human PD-L1-Fc protein [21], 7.36e+06 M⁻¹ s⁻¹ with human PD-L1-Fc protein [22] and 1.05e+07 M⁻¹ s⁻¹ with human PD-L1-Fc protein [23]. Moreover, the “fold higher affinity at pH 6 than at pH 7.4” value with human PD-L1-Fc protein [19] was roughly 20 fold. Also, the EC50 with human PD-L1 on cells [20] came out at 16.3 nM; with human PD-L1 on cells [26], 2.4 nM; with human PD-L1 on cells [28], 6.1 nM. The “fold better off rate at pH 6.0 than at pH 7.4” value in the assay with human PD-L1-Fc protein [24] is roughly 5 fold. Also, the IC50 was 1.2 nM with biotinylated human PD-L1 [25] and 0.4 nM in the assay with biotinylated human PD-L1 [27].
